Blank lines part the entries; values can stand above or below the binder they belong to.
What was measured:
[1] = target: T1, full-length p97 (residues 2–806), purified recombinant (human, UniProt P55072 2-806); assay: BLI; settings: both partners purified
T1 construct: p97 (VCP), human, residues 2-806; Hexamer when alone; in complex with ASPL-C it stands in heterotetramers; also called p97 hexamers; wt p97; source: E. coli BL21 DE3 Rosetta2, purified (Ni-NTA, TEV protease, SEC)

p97-A232E = p97-A232E (human, UniProt P55072 2-806, A232E); assay: SEC; settings: both partners purified

Kd [1]: ~2 nM
B1: C-terminally His-tagged full-length ASPL (residues 1–553) (natural protein, human, UniProt Q9BZE9 1-553, looked up)
chain: MAAPAGGGGSAVSVLAPNGRRHTVKVTPSTVLLQVLEDTCRRQDFNPCEYDLKFQRSVLDLSLQWRFANLPNNAKLEMVPASRSREGPENMVRIALQLDDGSRLQDSFCSGQTLWELLSHFPQIRECLQHPGGATPVCVYTRDEVTGEAALRGTTLQSLGLTGGSATIRFVMKCYDPVGKTPGSLGSSASAGQAAASAPLPLESGELSRGDLSRPEDADTSGPCCEHTQEKQSTRAPAAAPFVPFSGGGQRLGGPPGPTRPLTSSSAKLPKSLSSPGGPSKPKKSKSGQDPQQEQEQERERDPQQEQERERPVDREPVDREPVVCHPDLEERLQAWPAELPDEFFELTVDDVRRRLAQLKSERKRLEEAPLVTKAFREAQIKEKLERYPKVALRVLFPDRYVLQGFFRPSETVGDLRDFVRSHLGNPELSFYLFITPPKTVLDDHTQTLFQANLFPAALVHLGAEEPAGVYLEPGLLEHAISPSAADVLVARYMSRAAGSPSPLPAPDPAPKSEPAAEEGALVPPEPIPGTAQPVKRSLGKVPKWLKLPASKR
notes: ASPL, human, residues 1-553; cDNA from the Mammalian Gene Collection; also called ASPL-His; source: E. coli BL21 DE3 Rosetta2, purified (glutathione-Sepharose, TEV cleavage, SEC); not shown: His, C-terminal, kept; GST, N-terminal, cleaved

binding result (p97-A232E): binds
B2: ASPL-C (residues 313–553), purified recombinant (domain or fragment)
chain: VDREPVDREPVVCHPDLEERLQAWPAELPDEFFELTVDDVRRRLAQLKSERKRLEEAPLVTKAFREAQIKEKLERYPKVALRVLFPDRYVLQGFFRPSETVGDLRDFVRSHLGNPELSFYLFITPPKTVLDDHTQTLFQANLFPAALVHLGAEEPAGVYLEPGLLEHAISPSAADVLVARYMSRAAGSPSPLPAPDPAPKSEPAAEEGALVPPEPIPGTAQPVKRSLGKVPKWLKLPASKR

— paper PMC5080433 (Nature Communications, 2016)
